We go through one molecule from US20120121633A1 (published 2012).

The target of this assay is T1, ovalbumin (UniProt P01012 2-386).
T1 construct: also called control ovalbumin
T1 sequence: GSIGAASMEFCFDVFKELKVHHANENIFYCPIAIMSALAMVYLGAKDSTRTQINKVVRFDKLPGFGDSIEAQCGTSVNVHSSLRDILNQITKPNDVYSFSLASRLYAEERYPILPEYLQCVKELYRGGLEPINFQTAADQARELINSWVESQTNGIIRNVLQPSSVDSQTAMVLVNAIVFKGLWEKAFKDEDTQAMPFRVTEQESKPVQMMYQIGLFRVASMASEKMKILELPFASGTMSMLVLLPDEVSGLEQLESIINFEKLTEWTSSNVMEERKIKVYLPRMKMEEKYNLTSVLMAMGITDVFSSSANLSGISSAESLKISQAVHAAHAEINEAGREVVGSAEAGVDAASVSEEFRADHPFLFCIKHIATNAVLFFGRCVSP
Put plainly: competition ELISA: no inhibition of MAb 2G9 binding to immobilized BSA-E-416-433. For orientation: In an ELISA, binding on a coated surface is turned into a signal by an enzyme label.

B1: IgM clone 2G9 (antibody, V domains shown)
VH: QVQLKQSGPGLVQPSQSLSITCTVSGFSLTSYGVHWVRQSPGKGLEWLGVIWSGGSTDYNAAFISRLSISKDNSKSQVFFKMNSLQANDTAIYYCARNKDYGSSYDYYAMDYWGQGTSVTVSS
VL: DIQMTQTTSSLSASLGDRVTISCRASQDISNYLNWYQQKPDGTVKLLIYYTSRLHSGVPSRFSGSGSGTDYSLTISNLEQEDIATYFCQQGNTLPTFGGGTKLEIKR
notes: also called MAb 2G9; MAb IgM 2G9
Take B1: the binding result was “no binding”.
